In patent US20240092853A1 (Hoffmann-La Roche, published 2024):

Legend:
[1] = biological target: T1, IL2R(bg)-Fc construct (human IL2R beta extracellular domain fused to Fc(knob) with avi tag, human IL2R gamma … (human, biotin on the C-terminal avi tag (co-expressed BirA))); assay: ELISA: biotinylated IL2R(bg)-Fc coated on neutravidin plates, clone in bacterial supernatant bound at pH 6, washing and 30 min incubation at pH 6 or pH 7.4, detection with anti-Flag/HRP; absorption at pH 6 set to 1
T1 construct: Knob-into-hole Fc heterodimer; also called IL2Rβγ; human heterodimeric IL-2 receptor beta/gamma
Description: FIG. 3. Binding analysis for the first set of selected pH-dependent IL2v variants to IL2Rfβγ at pH 6 and pH 7.4 by ELISA. Bacterial supernatants containing clonal pH-dependent IL2v variants were incubated with previously coated IL2Rfβγ. Prior to the detection by an anti-Flag/HRP secondary antibody, extensive washing for 30 minutes was performed at pH 6 or pH 7.4. The absorption at pH 6 was normalized to a value of 1 and the ratio of absorption levels was compared.
25 μl of 50 nM biotinylated antigen per well were coated at pH 6 on 384-well neutravidin plates and blocked with 2% BSA (50 mM BisTris 140 mM NaCl, 2% BSA, pH 6). Bacterial supernatants containing soluble variants of IL2v were re-buffered to pH 6, added to the plates and incubated for 1 h. Subsequently, several washing steps were performed at either pH 6 or pH 7.4 followed by an incubation step in washing buffer for 30 min at the respective pH. Binding of pH-dependent IL2v variants to the IL2R(bg)-Fc construct was detected via Flag tag by using an anti-Flag/HRP secondary antibody. Comparison of the signal between the two conditions (pH 6 vs pH 7.4) allowed identifying constructs that bind in a pH-dependent manner. The phagemid expressing the parental IL2v construct was used as an internal pH-independent control. […] (FIG. 3), were selected (SEQ ID NOs 5-19) and converted into one-armed (OA) targeted conjugates.

[2] = biological target: T1, IL2R(bg)-Fc construct (human IL2R beta …); assay: ELISA: IL2R(bg)-Fc coated ('100nM IL2R coated'), soluble IL2v in bacterial supernatant adjusted to pH 6 or pH 7.4, washing at the same pH, detection with anti-Flag/HRP
Description: Bacterial supernatant was harvested by centrifugation and pH was adjusted to either pH 6 or pH 7.4 using Bis-Tris buffer (final concentration: 50 mM BisTris, 140 mM NaCL). Supernatant was incubated in Neutravidin plates that were previously coated with the biotinylated IL2R(bg)-Fc construct and blocked with BSA. While extensive washing after 1 h was performed with Bis-Tris washing buffer at the respective pH 6 or 7.4 (50 mM BisTris, 140 mM NaCL, 0.1% Tween), all subsequent steps were performed at pH 6 to avoid any pH-dependent secondary effects. Binding of IL2v to the IL2R(bg)-Fc construct was detected via Flag tag by using an anti-Flag/HRP secondary antibody.

T1 sequence (chain, as listed by the source limits assumed, chain 1 of 2): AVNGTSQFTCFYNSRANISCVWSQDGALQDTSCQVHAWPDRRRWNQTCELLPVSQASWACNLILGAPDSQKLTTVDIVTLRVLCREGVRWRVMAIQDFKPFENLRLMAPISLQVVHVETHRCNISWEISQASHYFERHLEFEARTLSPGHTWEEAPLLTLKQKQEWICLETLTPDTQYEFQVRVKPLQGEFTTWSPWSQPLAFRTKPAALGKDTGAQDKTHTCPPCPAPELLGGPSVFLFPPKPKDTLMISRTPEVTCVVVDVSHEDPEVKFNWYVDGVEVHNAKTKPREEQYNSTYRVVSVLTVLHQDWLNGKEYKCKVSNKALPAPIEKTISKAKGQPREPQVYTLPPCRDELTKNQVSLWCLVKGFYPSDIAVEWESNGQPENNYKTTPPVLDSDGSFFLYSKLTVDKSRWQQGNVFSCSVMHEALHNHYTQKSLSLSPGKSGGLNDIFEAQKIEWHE
T1 sequence (chain, as listed by the source limits assumed, chain 2 of 2): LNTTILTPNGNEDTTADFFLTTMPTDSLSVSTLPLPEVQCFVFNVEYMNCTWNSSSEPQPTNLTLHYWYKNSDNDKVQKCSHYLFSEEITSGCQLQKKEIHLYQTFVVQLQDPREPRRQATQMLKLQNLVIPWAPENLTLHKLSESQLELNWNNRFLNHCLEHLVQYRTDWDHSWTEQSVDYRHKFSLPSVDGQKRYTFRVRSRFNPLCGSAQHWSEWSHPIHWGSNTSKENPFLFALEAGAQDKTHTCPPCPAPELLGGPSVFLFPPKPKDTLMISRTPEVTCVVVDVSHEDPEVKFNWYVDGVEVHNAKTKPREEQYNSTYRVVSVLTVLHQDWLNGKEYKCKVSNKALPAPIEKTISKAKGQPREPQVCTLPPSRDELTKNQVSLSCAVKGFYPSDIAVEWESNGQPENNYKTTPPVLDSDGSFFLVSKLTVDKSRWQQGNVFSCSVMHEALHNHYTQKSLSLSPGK

| Binder | binding result [1] | binding result [2] |
| --- | --- | --- |
| ExplResIEE.P026.175 (ligand, as m5; not shown: C-terminal His tag and Flag tag of the phagemid) APASSSTKKTELQLEHLLLQLQEILNGINNYKNPKLTRMLTAKFAMPKKATELKHLQCLEEELKPLEEVLNGAQSKNFHLDPRELIENINVIVLELKGSETTFMCEYADETATIVEFLNRWITFAQSIIETLN | binds |  |
| IL2v (soluble, from the phagemid, in bacterial supernatant) (ligand, human IL-2 with T3A, F42A, Y45A, L72G, C125A; also called parental IL2v; not shown: C-terminal His tag and Flag tag of the phagemid) APASSSTKKTQLQLEHLLLDLQMILNGINNYKNPKLTRMLTAKFAMPKKATELKHLQCLEEELKPLEEVLNGAQSKNFHLRPRDLISNINVIVLELKGSETTFMCEYADETATIVEFLNRWITFAQSIISTLT |  | binds |
| ExplResIEE.P031.226 (ligand, as m5; not shown: C-terminal His tag and Flag tag of the phagemid) APASSSTKKTQLQLEHLLDDLQNILNGINNYKNPKLTRMLTAKFAMPKKATELKHLQCLEEELKPLEEVLNGAQSKNFHLDPRDLISNINVIVLELKGSETTFMCEYADETATIVEFLNRWITFAQSIISTLE | binds |  |
| ExplResIEE.P027.359 (ligand, as m5; not shown: C-terminal His tag and Flag tag of the phagemid) APASSSTKKTELQLEHLLDDLQMILNGINNYKNPKLTRMLTAKFAMPKKATELKHLQCLEEELKPLEEVLNGAQSKNFHLDPRELISNINVIVLELKGSETTFMCEYADETATIVEFLNRWITFAQSIIETLD | binds |  |
| ExplResIEE.P041.242 (ligand, as m5; not shown: C-terminal His tag and Flag tag of the phagemid) APASSSTKKTQLQLEHLLDDLQMILNGINNYKNPKLTRMLTAKFAMPKKATELKHLQCLEEELKPLEEVLNGAQSKNFHLEPRDLISNINVIVLELKGSETTFMCEYADETATIVEFLNRWITFAQSIIETLD | binds |  |
| ExplResIEE.P030.006 (ligand, as m5; not shown: C-terminal His tag and Flag tag of the phagemid) APASSSTKKTQLQLEHLLLDLQMILNGINNYKNPKLTRMLTAKFAMPKKATELKHLQCLEEELKPLEEVLNGAQSKNFHLDPRQLIDNINNIVLELKGSETTFMCEYADETATIVEFLNRWIQFAQSIIETLD | binds |  |
| ExplResIEE.P026.191 (ligand, as m5; not shown: C-terminal His tag and Flag tag of the phagemid) APASSSTKKTQEQLEHLLDDLQMILNGINNYKNPKLTRMLTAKFAMPKKATELKHLQCLEEELKPLEEVLNGAQSKNFHLDPRDLISNINVIVLELKGSETTFMCEYADETATIVEFLNEWIEFAQSIIETLE | binds |  |
| ExplResIEE.P042.107 (ligand, as m5; not shown: C-terminal His tag and Flag tag of the phagemid) APASSSTEKTQLQLEHLLLELQNILNGINNYKNPKLTRMLTAKFAMPKKATELKHLQCLEEELKPLEEVLNGAQSKNFHLHPRQLIENINVIVLELKGSETTFMCEYADETATIVEFLNHWITFAQSIIETLD | binds |  |
| ExplResIEE.P041.017 (ligand, as m5; not shown: C-terminal His tag and Flag tag of the phagemid) APASSSTKKTEEQLEHLLLDLQQILNGINNYKNPKLTRMLTAKFAMPKKATELKHLQCLEEELKPLEEVLNGAQSKNFHLQPRDLIDNINNIVLQLKGSETTFMCEYADETATIVEFLNHWIEFAQSIIETLE | binds |  |
| ExplResIEE.P041.449 (ligand, as m5; not shown: C-terminal His tag and Flag tag of the phagemid) APASSSTKKTQLQLEHLLLDLQMILNGINNYKNPKLTRMLTAKFAMPKKATELKHLQCLEEELKPLEEVLNGAQSKNFHLQPRDLIENINDIVLELKGSETTFMCEYADETATIVEFLNEWITFAQSIIETLD | binds |  |
| ExplResIEE.P026.237 (ligand, as m5; not shown: C-terminal His tag and Flag tag of the phagemid) APASSSTKKTQLQLEHLLLDLQMILNGINNYKNPKLTRMLTAKFAMPKKATELKHLQCLEEELKPLEEVLNGAQSKNFHLQPRDLIENINDIVLELKGSETTFMCEYADETATIVEFLNRWIEFAQSIIETLD | binds |  |
| ExplResIEE.P026.355 (ligand, as m5; not shown: C-terminal His tag and Flag tag of the phagemid) APASSSTKKTEEQLEHLLLDLQQILNGINNYKNPKLTRMLTAKFAMPKKATELKHLQCLEEELKPLEEVLNGAQSKNFHLDPRDLIENINDIVLELKGSETTFMCEYADETATIVEFLNRWITFAQSIIETLQ | binds |  |
| ExplResIEE.P030.045 (ligand, as m5; not shown: C-terminal His tag and Flag tag of the phagemid) APASSSTKKTQLQLEHLLDDLQMILNGINNYKNPKLTRMLTAKFAMPKKATELKHLQCLEEELKPLEEVLNGAQSKNFHLEPRELIQNINVIVLELKGSETTFMCEYADETATIVEFLNHWITFAQSIIETLE | binds |  |
| ExplResIEE.P041.554 (ligand, as m5; not shown: C-terminal His tag and Flag tag of the phagemid) APASSSTKKTQQQLEHLLQDLQMILNGINNYKNPKLTRMLTAKFAMPKKATELKHLQCLEEELKPLEEVLNGAQSKNFHLHPRDLISNINEIVLELKGSETTFMCEYADETATIVEFLNRWIEFAQSIIETLE | binds |  |
